This data set addresses DNMT1 (UniProt P26358 1-1616). In words: SPR. (In general: Surface plasmon resonance follows binding to a sensor surface in real time, without labels.)

Kd data for one molecule are collected here from PMC3315326.

Chain of DNMT1 (P26358 whole entry): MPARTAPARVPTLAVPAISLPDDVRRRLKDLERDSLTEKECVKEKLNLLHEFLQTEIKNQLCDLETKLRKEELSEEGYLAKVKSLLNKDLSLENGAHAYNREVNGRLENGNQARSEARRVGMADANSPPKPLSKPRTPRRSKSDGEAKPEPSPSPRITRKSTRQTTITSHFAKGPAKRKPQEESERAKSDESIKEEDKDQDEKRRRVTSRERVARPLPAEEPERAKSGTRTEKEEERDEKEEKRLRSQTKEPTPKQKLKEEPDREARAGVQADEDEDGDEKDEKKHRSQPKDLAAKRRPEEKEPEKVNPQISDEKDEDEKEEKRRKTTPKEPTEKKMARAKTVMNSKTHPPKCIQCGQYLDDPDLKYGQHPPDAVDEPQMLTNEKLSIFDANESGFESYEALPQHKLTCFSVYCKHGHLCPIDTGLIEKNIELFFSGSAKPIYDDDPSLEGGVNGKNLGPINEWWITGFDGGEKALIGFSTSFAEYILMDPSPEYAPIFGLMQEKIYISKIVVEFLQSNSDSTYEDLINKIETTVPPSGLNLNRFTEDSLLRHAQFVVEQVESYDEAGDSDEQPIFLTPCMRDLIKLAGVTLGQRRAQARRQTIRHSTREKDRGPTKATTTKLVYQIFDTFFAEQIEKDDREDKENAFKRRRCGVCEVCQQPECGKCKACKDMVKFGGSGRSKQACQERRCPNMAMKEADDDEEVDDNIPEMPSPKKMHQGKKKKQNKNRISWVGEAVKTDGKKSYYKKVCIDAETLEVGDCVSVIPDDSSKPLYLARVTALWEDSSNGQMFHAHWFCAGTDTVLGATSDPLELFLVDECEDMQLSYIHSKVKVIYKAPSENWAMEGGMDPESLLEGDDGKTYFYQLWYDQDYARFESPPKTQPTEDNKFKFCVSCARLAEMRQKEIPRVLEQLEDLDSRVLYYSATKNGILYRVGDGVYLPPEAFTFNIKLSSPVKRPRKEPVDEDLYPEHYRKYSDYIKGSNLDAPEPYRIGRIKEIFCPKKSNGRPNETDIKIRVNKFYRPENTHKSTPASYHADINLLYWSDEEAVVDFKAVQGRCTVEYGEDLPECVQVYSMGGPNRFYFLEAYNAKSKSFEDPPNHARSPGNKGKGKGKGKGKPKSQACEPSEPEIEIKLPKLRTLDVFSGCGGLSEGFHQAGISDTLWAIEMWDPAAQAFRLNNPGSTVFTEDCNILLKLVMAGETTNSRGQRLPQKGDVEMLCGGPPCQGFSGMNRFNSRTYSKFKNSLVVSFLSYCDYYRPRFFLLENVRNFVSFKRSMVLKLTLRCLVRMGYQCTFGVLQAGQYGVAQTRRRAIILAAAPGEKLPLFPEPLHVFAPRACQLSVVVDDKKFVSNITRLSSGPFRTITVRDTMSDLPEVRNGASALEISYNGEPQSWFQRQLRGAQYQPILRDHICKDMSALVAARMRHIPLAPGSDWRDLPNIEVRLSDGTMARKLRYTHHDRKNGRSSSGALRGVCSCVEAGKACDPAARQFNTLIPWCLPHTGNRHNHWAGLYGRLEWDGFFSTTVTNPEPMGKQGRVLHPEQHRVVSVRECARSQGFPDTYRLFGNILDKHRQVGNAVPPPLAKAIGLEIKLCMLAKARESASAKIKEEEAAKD

B1: hemimethylated 30-bp oligo (D1subHMF/D1subUMF) (dsDNA)
DNA 1: GAAGCTGGGACTTCCGGCAGGAGAGTGCAA
DNA 2: TTGCACTCTCCTGCCGGAAGTCCCAGCTTC
modifications: 5-methylcytosine at position 15 of strand 1
The molecule B1 showed a Kd of 1070 nM.

Broadly, the Kd is the constant that tells how readily two partners part at equilibrium. A higher Kd goes with a looser complex.
